First the molecules themselves.
B1: Hairpin Ribozyme (parent)
chain: GUCCUCUUUCACGUGCGCGUGAAAGAGAGAAGUGAACCAGAGAAACACACGUUGUGGUAUAUUACCUGGUA

This data set covers variants of B1. In words: self-cleavage, relative activity (ratio to wild type); higher = more cleavage; co-transcriptional.
On to UUCCUCUUUCACGUGCGUGUGAAAGAGAGAAGUGAACCAGAGAAACACACGUUGUGGUAUAUUACCUGGUA [G1U C18U], for which the self-cleavage came to 0.121. As for GUCCUCUUUCACGUGCGCGUGAAAGGGAGAAGUGAACCAGAGAAAUACACGUUGUGGUAUAUUACCUGGUA [A26G C46U], the figure is 0.267. Take AUCCUCUUUCACGUGCGCGUGAAAGAGAGAAGUGAACCAUAGAAACACACGUUGUGGUAUAUUACCUGGUA [G1A G40U]: the self-cleavage came to 0.123.

Take GUCCUCUUUCACGUGCGCGUGAAAGAGAGAAGUGAACCCGAGAAACACACGUUGAGGUAUAUUACCUGGUA [A39C U55A]: the self-cleavage was determined as 0.148. Under GUCCUCUUUCACGUCCGCGUGAAAGAGAGAAGUGAACCAGAGAAUCACACGUUGUGGUAUAUUACCUGGUA [G15C A45U] stands 0.191; under GUCCUCUUUCACGUCCGCGUGAAAGAGAGAAGUGAACCAGAGAAACACAUGUUGUGGUAUAUUACCUGGUA [G15C C50U], 0.47. As for GUCCUCUUUCACGUGCGCGUGAAAGAGAGAAGUGAACCAGAGAAACACACGGUGUGGUAUAUAACCUGGUA [U52G U63A], the figure is 0.139; as for GUCCUCUUUCACGUGCGCGUGAAAGAAAGAAGUGAACCAGAGAACCACACGUUGUGGUAUAUUACCUGGUA [G27A A45C], 0.186.

GUCCUCUUUCACGUGCGCGUGAAAGAGAAAAGUGAACCAGAGAAACACACUUUGUGGUAUAUUACCUGGUA [G29A G51U]: the self-cleavage was 0.0861. Under GUCCUCUUUCACGUGCGCGUGAAACAGAGAAGUGAACCAGAGAAACACACGUUGUGGUAUAUCACCUGGUA [G25C U63C] stands 0.204; under GUCUUCUUUCACGUGCGCGUGAAAGAGAGAAGUGAACCAGAGAAACACACGAUGUGGUAUAUUACCUGGUA [C4U U52A], 0.295. GUCCUCUUUCACGUGCGCGUGGAAGAGAGAAGUGAACCAGAGAAACACACCUUGUGGUAUAUUACCUGGUA [A22G G51C]: the self-cleavage is 0.745.

On to GUCCUCUUUCACGUGCGCGUGAAAGAGAGAAGUGAACCAGAGAAACACACGUUGUGGUAUAUUACCUGCUG [G69C A71G], for which the self-cleavage is 0.316. As for GUCCUCUUUCACGUGCGCGUGAAAGAGAGAAGUGAACCAGAGAAAAACACGUUGGGGUAUAUUACCUGGUA [C46A U55G], the figure is 0.253; as for GUCCUCUUUCACGCGCGCGUGAAAGAGAGAAGUGAACCAGAGAAACACACGUUGUGGUCUAUUACCUGGUA [U14C A59C], 0.0922. GUCCUCUUUCACGUGCGCGUGAAAGAGAGAAGUGAACCAGAGAAACACACGUUGUGGUAGCUUACCUGGUA [U60G A61C]: the self-cleavage was determined as 0.315. Consider GUCCUCUUUCACGUGCGCGAGAAAGAGAGAAGUGAACCAGAGAAACACACGUUGUGGUACAUUACCUGGUA [U20A U60C], for which the self-cleavage stood at 0.995. Under GUCCUCUUUCACGUGCGCUUGAAAGAGAGAAGUGAACCAGAGAAACACACGUUGUGGUAUAUUACCCGGUA [G19U U67C] stands 0.214. As for GUCCUCUAUCACGUGCGCGUGCAAGAGAGAAGUGAACCAGAGAAACACACGUUGUGGUAUAUUACCUGGUA [U8A A22C], the figure is 0.594; as for GUCCUCUUUCACGUGCGCGUGAAAGAGAAAAGUGAACCAGAGAAACACACGUUGUGGUACAUUACCUGGUA [G29A U60C], 0.144. As for GUCCUCUUUCACGUGCGCGUGAAAGAGAGAACUGAACCAGAGAAACACCCGUUGUGGUAUAUUACCUGGUA [G32C A49C], the figure is 0.0996; as for GUCCUCUUUCACGUGCGCGUGAAAGAGAGAAGUGAACCAGAGAAACACACGUUGUGGUACAUUACCUGGUG [U60C A71G], 1.08. For the variant UUCCUAUUUCACGUGCGCGUGAAAGAGAGAAGUGAACCAGAGAAACACACGUUGUGGUAUAUUACCUGGUA [G1U C6A], the self-cleavage is 0.138.

GUCCUCCUUCACGUGCGCGCGAAAGAGAGAAGUGAACCAGAGAAACACACGUUGUGGUAUAUUACCUGGUA [U7C U20C]: the self-cleavage amounted to 1.14. Under GUCCUCUUUCACGUGCGGGUGAAAGAGAGAAGUGAACCAGAGAAGCACACGUUGUGGUAUAUUACCUGGUA [C18G A45G] stands 0.0821. With GUACUCUUUCACGUGCGCGUGAAAGAGAGAAGUGAAUCAGAGAAACACACGUUGUGGUAUAUUACCUGGUA [C3A C37U], the self-cleavage was found to be 0.543. As for GUCCCCUUUCACGUGCGCGUGAAAGAGAGAGGUGAACCAGAGAAACACACGUUGUGGUAUAUUACCUGGUA [U5C A31G], the self-cleavage was found to be 0.391. For GUCCUCUUUCACGUGCGCGUGAAAGAGAGAAGUGAACCAGAGGAACACACGUAGUGGUAUAUUACCUGGUA [A43G U53A], the self-cleavage stood at 0.152. As for GUCCUCUUUCACGUGCACGUGAAAGAGAGAAGUGAACCAGAGAAACACACGUUGUGGUAUAUUACUUGGUA [G17A C66U], the figure is 0.554; as for GUCCUCUUUCACGUGCGCGUGAAAGAGAGAAGUGAAGCAGAGAAACACACGUUGUGUUAUAUUACCUGGUA [C37G G57U], 0.141. As for GUCCUCUAUCACGUGCGCGUGAAAGAGAGAAGUGAACCAGAGAAACACACGUUGUGGUAUAUUACCUGGAA [U8A U70A], the figure is 0.665; as for GUCCUCUUUCACGUGCGCGUGAAGGAAAGAAGUGAACCAGAGAAACACACGUUGUGGUAUAUUACCUGGUA [A24G G27A], 0.401. Turning to GUCCUCUUUCACGUGCGCGUGAAAGAGAGAAGUUAGCCAGAGAAACACACGUUGUGGUAUAUUACCUGGUA [G34U A36G], the self-cleavage turned out to be 0.909. As to GUCCUCUUUCACGUGCGCGUGAAAGACAGAAGUCAACCAGAGAAACACACGUUGUGGUAUAUUACCUGGUA [G27C G34C], the self-cleavage is 0.971. As for GUCCUCCUUCACGUGCGCGUGAAAGAGAGAAGUGAACCAGAGAAACACAUGUUGUGGUAUAUUACCUGGUA [U7C C50U], the figure is 0.523; as for GUCCUCUUUCACGUGCGCGUGAAAGAGAGAAUUGAACCAGAAAAACACACGUUGUGGUAUAUUACCUGGUA [G32U G42A], 0.153; as for GUCCUCUUUCACGUGCGCGUGAAAGAGAGAAGUGAACCAGAGAAACACACCUUGUGGUAUAUUACCUGGUC [G51C A71C], 1.3. Consider GUCCUCUUUCACGUGCGCGUGAAAGAGAGUAGUGAACCAGAGAAACACACGUUGUGGUAUAAUACCUGGUA [A30U U62A], for which the self-cleavage was determined as 0.177.

Source of the values: the RNAGym collection of RNA variant scans (doi:10.7554/elife.80360).
